Experimental data published in US20160237122A1.

Key:
[1] = biological target: HIV-1 gp120 protein (Fitzgerald Industries International Inc, USA) (HIV-1); assay: dot blot: 5 ng fusion F23 peptide on nitrocellulose, gp120 in 10-fold diluted human serum, HRP-conjugated gp120 antibody, chemiluminescence
[2] = biological target: HIV-1 gp120 protein (Fitzgerald Industries International Inc, USA) (HIV-1); assay: dot blot: value derived from 1 pg in 1 mL of 10-fold diluted human serum
[3] = biological target: HIV-1 gp120 protein (Fitzgerald Industries International Inc, USA) (HIV-1); assay: fusion peptide on Ni-NTA magnetic agarose beads, detected with FITC-labeled gp120 antibody, fluorescence microscopy

MIHHHHHHEMISLIAALAVIEGRCNLHFCQLRCKSLGLLGKCAGSFCACV (designed binder) [fusion F23 peptide (His6-tag, 15 amino acid linker derived from E. coli DHFR, F23)]
detection limit of gp120 [1]: 1 pg/mL | detectable gp120 concentration in human blood [2]: 10 pg/mL | gp120 concentration detected [3]: 10 ng/µL
